Results published in publication PMC10303025.

Biological target: T1, M2-1 transcription antiterminator (Human respiratory syncytial virus, UniProt P04545 1-194)
T1 sequence: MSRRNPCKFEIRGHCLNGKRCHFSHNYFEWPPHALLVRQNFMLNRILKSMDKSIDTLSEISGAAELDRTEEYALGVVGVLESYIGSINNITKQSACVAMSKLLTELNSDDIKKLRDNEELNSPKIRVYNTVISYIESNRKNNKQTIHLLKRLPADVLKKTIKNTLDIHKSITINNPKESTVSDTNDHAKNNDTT
Experiment: not stated (EMSA and fluorescence polarization titrations mentioned); Kd may derive from earlier work [37]
Details: protein: recombinant; chain copies: 4; label: 5' 6-FAM; single strand

B1: RNARSV20 (SH gene end 20-mer) (ssRNA)
RNA: AUAAAGUAGUUAAUUAAAAA
In the case of B1, the Kd is reported as 20 nM.
